In US20150126390A1:

molecular target: tau-CFP/YFP protein biosensors (UniProt P10636); test: cell-based or functional assay
Sequence (P10636 561-689, form in doubt): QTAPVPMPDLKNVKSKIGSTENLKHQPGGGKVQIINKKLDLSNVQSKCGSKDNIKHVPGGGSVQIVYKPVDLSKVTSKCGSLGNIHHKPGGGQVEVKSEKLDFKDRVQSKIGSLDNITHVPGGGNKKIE

Sequence of recombinant full-length (2N,4R) tau fibrils, preparation C (50 µM octadecyl sulfate, 37° C.) (P10636 other isoform, or with tags, fused parts or gaps limits assumed): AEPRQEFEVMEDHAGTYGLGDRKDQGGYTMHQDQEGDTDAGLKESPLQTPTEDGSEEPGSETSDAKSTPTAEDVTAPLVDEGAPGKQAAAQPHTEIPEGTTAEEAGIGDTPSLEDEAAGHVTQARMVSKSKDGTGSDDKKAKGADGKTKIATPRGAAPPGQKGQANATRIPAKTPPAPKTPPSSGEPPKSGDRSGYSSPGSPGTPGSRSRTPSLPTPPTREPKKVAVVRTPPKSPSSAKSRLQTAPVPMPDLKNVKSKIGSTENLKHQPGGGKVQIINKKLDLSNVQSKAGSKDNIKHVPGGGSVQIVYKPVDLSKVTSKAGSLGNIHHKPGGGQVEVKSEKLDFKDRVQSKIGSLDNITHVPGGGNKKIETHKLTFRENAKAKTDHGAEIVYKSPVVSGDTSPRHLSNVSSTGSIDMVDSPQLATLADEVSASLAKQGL
Sequence of recombinant full-length (2N,4R) tau fibrils, preparation B (8 µM heparin, 22° C.) (P10636 other isoform, or with tags, fused parts or gaps limits assumed): as above
Sequence of recombinant full-length (2N,4R) tau fibrils, preparation A (8 µM heparin, 37° C.) (P10636 other isoform, or with tags, fused parts or gaps limits assumed): as above

EC50 (pM) of seeding, FRET flow cytometry in biosensor cell line [pM]	Plateau (fold increase) of seeding, FRET flow cytometry in biosensor cell line (fold increase)	Substance
< 1	6.67	recombinant full-length (2N,4R) tau fibrils, preparation A (8 µM heparin, 37° C.) (from UniProt P10636 2-441)
4.3	6.55	recombinant full-length (2N,4R) tau fibrils, preparation B (8 µM heparin, 22° C.) (from UniProt P10636 2-441)
141	4.19	recombinant full-length (2N,4R) tau fibrils, preparation C (50 µM octadecyl sulfate, 37° C.) (from UniProt P10636 2-441)
